In patent US20250319163A1, “TREATMENT OF TYPE 2 DIABETES MELLITUS” (SANOFI, priority 2019, published 2025):

Legend:
[1] = test system: Japanese patients with type 2 diabetes mellitus inadequately controlled on oral antidiabetic drugs; assay: EFC14114: mean change in HbA1c from baseline to Week 26; type: in vivo, human; details: on-treatment period, mITT population
[2] = test system: Japanese patients with type 2 diabetes mellitus inadequately controlled on oral antidiabetic drugs; assay: EFC14114: mean change in 2-hour postprandial plasma glucose during a standardized meal test; type: in vivo, human; details: mITT population, ANCOVA, LOCF
[3] = test system: Japanese patients with type 2 diabetes mellitus inadequately controlled on oral antidiabetic drugs; assay: EFC14114: treatment-emergent adverse events; details: Safety population; for Patients with any TEAE, %: overview of adverse event profile
[4] = test system: Japanese patients with type 2 diabetes mellitus inadequately controlled on oral antidiabetic drugs; assay: EFC14114: documented symptomatic hypoglycemia; type: in vivo, human; details: plasma glucose ≤70 mg/dL [[…]], on-treatment period; for Documented symptomatic hypoglycemia: patients with events, %: Safety population
[5] = test system: Japanese patients with type 2 diabetes mellitus inadequately controlled on oral antidiabetic drugs; assay: EFC14114: mean change in fasting plasma glucose from baseline to Week 26; type: in vivo, human; details: mITT population, MMRM
[6] = SGLT2 inhibitor use at screening: No
[7] = SGLT2 inhibitor use at screening: Yes

Substance: Gly(A21)-Arg(B31)-Arg(B32) human insulin [Insulin Glargine]
- Mean change in HbA1c from baseline to Week 26, LSMean (SE) [1, 6]: −0.83 (0.047) %
- Mean change in HbA1c from baseline to Week 26, LSMean (SE) [1, 7]: −0.49 (0.091) %
- Mean change in 2-hour postprandial plasma glucose during a standardized meal test from baseline to Week 26, LSMean (SE) [2, 6]: −1.29 (0.185) mmol/L
- Mean change in 2-hour postprandial plasma glucose during a standardized meal test from baseline to Week 26, LSMean (SE) [2, 7]: −1.38 (0.363) mmol/L
- Patients with TEAE: Any class, % [3, 6]: (63.4%)
- Patients with TEAE: Back pain (PT), % [3, 6]: (2.9%)
- Patients with TEAE: Constipation (PT), % [3, 6]: (1.5%)
- Patients with TEAE: Dental caries (PT), % [3, 6]: (2.4%)
- Patients with TEAE: Diarrhoea (PT), % [3, 6]: (2.9%)
- Patients with TEAE: Dizziness (PT), % [3, 6]: (3.4%)
- Patients with TEAE: Dyspepsia (PT), % [3, 6]: (0.5%)
- Patients with TEAE: Fatigue (PT), % [3, 6]: (2.0%)
- Patients with TEAE: Gastrointestinal disorders (SOC), % [3, 6]: (15.6%)
- Patients with TEAE: General disorders and administration site conditions (SOC), % [3, 6]: (7.3%)
- Patients with TEAE: Headache (PT), % [3, 6]: (2.0%)
- Patients with TEAE: Hyperhidrosis (PT), % [3, 6]: (2.9%)
- Patients with TEAE: Infections and infestations (SOC), % [3, 6]: (35.6%)
- Patients with TEAE: Influenza (PT), % [3, 6]: (1.5%)
- Patients with TEAE: Metabolism and nutrition disorders (SOC), % [3, 6]: (2.9%)
- Patients with TEAE: Musculoskeletal and connective tissue disorders (SOC), % [3, 6]: (12.2%)
- Patients with TEAE: Nasopharyngitis (PT), % [3, 6]: (25.4%)
- Patients with TEAE: Nausea (PT), % [3, 6]: (1.5%)
- Patients with TEAE: Nervous system disorders (SOC), % [3, 6]: (9.3%)
- Patients with TEAE: Pharyngitis (PT), % [3, 6]: (1.0%)
- Patients with TEAE: Skin and subcutaneous tissue disorders (SOC), % [3, 6]: (9.8%)
- Patients with any TEAE leading to permanent treatment discontinuation, % [3, 6]: 0.5%
- Patients with any serious TEAE, % [3, 6]: 3.4%
- Patients with TEAE: Any class, % [3, 7]: (64.3%)
- Patients with TEAE: Back pain (PT), % [3, 7]: (5.4%)
- Patients with TEAE: Dental caries (PT), % [3, 7]: (1.8%)
- Patients with TEAE: Gastrointestinal disorders (SOC), % [3, 7]: (12.5%)
- Patients with TEAE: General disorders and administration site conditions (SOC), % [3, 7]: (5.4%)
- Patients with TEAE: Headache (PT), % [3, 7]: (5.4%)
- Patients with TEAE: Hyperhidrosis (PT), % [3, 7]: (1.8%)
- Patients with TEAE: Infections and infestations (SOC), % [3, 7]: (33.9%)
- Patients with TEAE: Influenza (PT), % [3, 7]: (1.8%)
- Patients with TEAE: Metabolism and nutrition disorders (SOC), % [3, 7]: (1.8%)
- Patients with TEAE: Musculoskeletal and connective tissue disorders (SOC), % [3, 7]: (12.5%)
- Patients with TEAE: Nasopharyngitis (PT), % [3, 7]: (17.9%)
- Patients with TEAE: Nausea (PT), % [3, 7]: (3.6%)
- Patients with TEAE: Nervous system disorders (SOC), % [3, 7]: (10.7%)
- Patients with TEAE: Pharyngitis (PT), % [3, 7]: (5.4%)
- Patients with TEAE: Skin and subcutaneous tissue disorders (SOC), % [3, 7]: (8.9%)
- Patients with any TEAE leading to permanent treatment discontinuation, % [3, 7]: 1.8%
- Patients with any serious TEAE, % [3, 7]: 1.8%
- Patients with any TEAE, % [3, 6]: 63.4%
- Patients with any TEAE, % [3, 7]: 64.3%
- Documented symptomatic hypoglycemia: Number of events [4, 6]: 62
- Documented symptomatic hypoglycemia: Number of events per patient year [4, 6]: 0.61
- Documented symptomatic hypoglycemia: Number of patients with events per patient year [4, 6]: 0.28
- Documented symptomatic hypoglycemia: patients with events, % [4, 6]: 14.1%
- Documented symptomatic hypoglycemia: Number of events [4, 7]: 8
- Documented symptomatic hypoglycemia: Number of events per patient year [4, 7]: 0.29
- Documented symptomatic hypoglycemia: Number of patients with events per patient year [4, 7]: 0.11
- Documented symptomatic hypoglycemia: patients with events, % [4, 7]: 5.4%
- Mean change in fasting plasma glucose from baseline to Week 26, LSMean (SE) [5, 6]: −1.46 (0.104) mmol/L
- Mean change in fasting plasma glucose from baseline to Week 26, LSMean (SE) [5, 7]: −1.01 (0.205) mmol/L
